From patent US20250066456A1 (NOVAVAX, published 2025)
Read-outs that look alike come from different tables or passages of the source.

Experiments:
[1] = molecular target: T1, BV2438 (recombinant CoV S glycoprotein, Beta) (SARS-CoV-2, UniProt P0DTC2 14-1273); assay: hACE2 receptor inhibition ELISA on coated rS; competitor hACE2-His
[2] = molecular target: T2, BV2373 (recombinant CoV S glycoprotein, Prototype) (SARS-CoV-2, UniProt P0DTC2 14-1273); assay: as above
[3] = molecular target: T3, BV2425 (recombinant CoV S glycoprotein, Alpha) (SARS-CoV-2, UniProt P0DTC2 14-1273); assay: as above
[4] = molecular target: T4, BV2509 (recombinant CoV S glycoprotein, BA.1) (SARS-CoV-2, UniProt P0DTC2 14-1273); assay: as above
[5] = molecular target: T5, BV2465 (recombinant CoV S glycoprotein, Delta) (SARS-CoV-2, UniProt P0DTC2 14-1273); assay: as above
[6] = molecular target: T6, BV2443 (recombinant CoV S glycoprotein, Gamma) (SARS-CoV-2, UniProt P0DTC2 14-1273); assay: as above
[7] = molecular target: T1, BV2438 (recombinant CoV S glycoprotein, …); assay: ELISA, plate coated with rS, serial dilution of the mAb, anti-mouse HRP, A450
[8] = molecular target: T3, BV2425 (recombinant CoV S glycoprotein, …); assay: as above
[9] = molecular target: T4, BV2509 (recombinant CoV S glycoprotein, …); assay: as above
[10] = molecular target: T5, BV2465 (recombinant CoV S glycoprotein, …); assay: as above
[11] = molecular target: T6, BV2443 (recombinant CoV S glycoprotein, …); assay: as above
[12] = molecular target: T6, BV2443 (recombinant CoV S glycoprotein, …)
[13] = molecular target: BV2562 (recombinant CoV S glycoprotein, BA.4.6) (SARS-CoV-2, UniProt P0DTC2 14-1273); assay: ELISA on coated rS
[14] = molecular target: BV2541 (recombinant CoV S glycoprotein, BA.4) (SARS-CoV-2, UniProt P0DTC2 14-1273); assay: ELISA on coated rS
[15] = molecular target: T7, Delta Plus CoV S glycoprotein (recombinant) (Severe acute respiratory syndrome …, UniProt P0DTC2 14-1273)
[16] = molecular target: BV2589 (recombinant CoV S glycoprotein, BQ.1.1) (SARS-CoV-2, UniProt P0DTC2 14-1273); assay: BLI, antibody on anti-mouse Fc biosensor, rS analyte
[17] = molecular target: BV2561 (recombinant CoV S glycoprotein, BA.2.75) (SARS-CoV-2, UniProt P0DTC2 14-1273); assay: ELISA on coated rS
[18] = molecular target: T4, BV2509 (recombinant CoV S glycoprotein, …); assay: ELISA on coated rS
[19] = molecular target: T7, Delta Plus CoV S glycoprotein …; assay: hACE2 receptor inhibition ELISA on coated rS; competitor hACE2-His
[20] = molecular target: T1, BV2438 (recombinant CoV S glycoprotein, …); assay: ELISA on coated rS
[21] = molecular target: T2, BV2373 (recombinant CoV S glycoprotein, …); assay: ELISA on coated rS
[22] = molecular target: T3, BV2425 (recombinant CoV S glycoprotein, …); assay: ELISA on coated rS
[23] = molecular target: T4, BV2509 (recombinant CoV S glycoprotein, …); assay: ELISA on coated rS; remark: listed apart in the source
[24] = molecular target: T5, BV2465 (recombinant CoV S glycoprotein, …); assay: ELISA on coated rS
[25] = molecular target: T7, Delta Plus CoV S glycoprotein …; assay: ELISA on coated rS
[26] = molecular target: T6, BV2443 (recombinant CoV S glycoprotein, …); assay: ELISA on coated rS

Row | Binder | IC50 [1] [µg/mL] | IC50 [2] [µg/mL] | IC50 [3] [µg/mL] | IC50 [4] [µg/mL] | IC50 [5] [µg/mL] | IC50 [6] [µg/mL] | EC50 [13] [µg/mL] | EC50 [14] [µg/mL] | Kd [16] [pM] | EC50 [17] [µg/mL] | EC50 [18] [µg/mL] | other results
1 | 425.6 (antibody, V domains shown) VH: VQLKQSGPSLVQPSQSLSITCTVSGFSLTSYGIHWVRQSPGKGLEWLGVIWRGGSTDYNAAFMSRLTITKDNSKSQVFFKMNSLQADDTAIYYCATHTEGDDVDYWGQGTSVTVSS VL: QIVLTQSPAIMSVSPGEKVTMTCSASSTMSFMYWYQQKPGSSPRLLIYDTSNLASGVPVRFSGSGSGTSYSLTISRVEAEDAATYYCQQWNTYPLTFGAGTKLELKR | 0.048 | 0.064 | 0.1 | > 3 | 0.069 | 0.048 | 0.021 | 0.016 | – | – | – | Kd (BV2457 (rS India)): < 1 pM; koff (BV2457 (rS India)): 1.88e-07 s⁻¹; kon (BV2457 (rS India)): 117000 M⁻¹ s⁻¹; EC50 [7]: 0.011 µg/mL; EC50 [8]: 0.011 µg/mL; EC50 [9]: > 1 µg/mL; EC50 [10]: 0.012 µg/mL; EC50 [11]: 0.01 µg/mL; Kd [12]: 3.52 pM
2 | 322.3 (antibody, V domains shown) VH: RVQLQQSGPELVKPGASVTISCKASGYIFTSDYIHWVKQRPGQGPEWIGWIYPGNINTKYNEKFKGKATLTADKSSSTAYMQLSSLTSEDSAVYFCARDDGNLYYYAMDYWGQGTSVTVSS VL: NIVLTQSPASLAVSLGQRATISCRASESVDSYGSSFMHWYQQKPGQPPKLLIYLASNLESGVPARFSGSGSRTDFTLTIDPVEADDAATYYCQQNNEDPRTFGGGTKLEIK | – | – | – | – | – | – | 0.117 | 0.082 | 1.63 | 0.144 | 0.197 | EC50 [15]: 0.054 µg/mL
3 | 35.13 (antibody, V domains shown) VH: QVQLQQSGAELGKPGASVKLSCRASGYTFTRYYIYWVKQRPGQGLEWIGEINPSNGDTHFNEKFKTKATLTVDKSSSSAHIHLTSLTSEDSAVYYCSIHAYSFDFWGQGTTLTVSS VL: EIQMTQSPSSMSASLGDRITITCQATQDIVKNLNWYQQKPGKPPSFLIYHATELAKGVPSRFSGSGSGSDYSLTISNLESEDFADYYCLQFYDFPFTFGAGTKLELKR | 0.922 | 0.074 | 0.142 | 0.102 | 0.098 | 0.07 | – | – | < 1 | 0.048 | 0.038 | IC50 [19]: 0.065 µg/mL; EC50 [20]: 0.119 µg/mL; EC50 [21]: 7 ng/mL; EC50 [22]: 0.011 µg/mL; EC50 [23]: 0.05 µg/mL; EC50 [24]: 0.01 µg/mL; EC50 [25]: 0.011 µg/mL; EC50 [26]: 0.012 µg/mL; koff [16]: < 1e-07 s⁻¹; kon [16]: 26900 M⁻¹ s⁻¹
